Experimental data from PMC10681709, “Molecular insight into the specific enzymatic properties of TREX1 revealing the diverse functions in processing RNA and DNA/RNA hybrids”.

Assays:
[1] = biological target: T1, mTREX1 truncated (nuclease domain) (Mus musculus, UniProt Q91XB0 1-242); assay: fluorescence anisotropy; 20 mM EDTA, no Mg2+; FA: 5 nM FAM nucleic acid, 120 mM NaCl, 20 mM Tris pH 7.0, 20 mM EDTA, room temperature, 30 min; RNase T EMSA: 120 mM NaCl, 50 mM EDTA, 20 mM buffer (truncated); details: protein: recombinant, tags: His-tag, chain copies: 2
T1 sequence: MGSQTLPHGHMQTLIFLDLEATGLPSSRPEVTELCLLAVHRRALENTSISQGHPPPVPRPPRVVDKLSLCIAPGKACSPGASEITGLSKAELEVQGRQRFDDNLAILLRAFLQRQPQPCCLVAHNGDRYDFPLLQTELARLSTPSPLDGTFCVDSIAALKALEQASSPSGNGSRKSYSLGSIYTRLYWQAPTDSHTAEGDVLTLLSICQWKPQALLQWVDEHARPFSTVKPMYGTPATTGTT

[2] = biological target: T1, mTREX1 truncated (nuclease domain); assay: fluorescence anisotropy; 20 mM EDTA; extrapolated; legend prints uM, but nM fits the stated ~500-fold drop vs ssDNA20; FA: 5 nM FAM nucleic acid, 120 mM NaCl, 20 mM Tris pH 7.0, 20 mM EDTA, room temperature, 30 min; RNase T EMSA: 120 mM NaCl, 50 mM EDTA, 20 mM buffer (truncated); details: protein: recombinant; tags: His-tag; chain copies: 2; label: 5'-FAM; single strand
[3] = biological target: T1, mTREX1 truncated (nuclease domain); assay: fluorescence anisotropy; 20 mM EDTA; Kd stated between those of dsDNA (139.4 nM) and DNA/RNA hybrid (102.0 nM); FA: 5 nM FAM nucleic acid, 120 mM NaCl, 20 mM Tris pH 7.0, 20 mM EDTA, room temperature, 30 min; RNase T EMSA: 120 mM NaCl, 50 mM EDTA, 20 mM buffer (truncated); details: protein: recombinant; tags: His-tag; chain copies: 2; label: 5'-FAM on strand 1; blunt
[4] = biological target: T1, mTREX1 truncated (nuclease domain); assay: fluorescence anisotropy; 20 mM EDTA; not saturated, extrapolated (legend prints uM, text nM); FA: 5 nM FAM nucleic acid, 120 mM NaCl, 20 mM Tris pH 7.0, 20 mM EDTA, room temperature, 30 min; RNase T EMSA: 120 mM NaCl, 50 mM EDTA, 20 mM buffer (truncated); details: protein: recombinant; tags: His-tag; chain copies: 2; label: 5'-FAM; single strand

B1: DNA/RNA hybrid 20 bp (DNA:RNA)
DNA: ACTGGACAAATACTCCGAGG
RNA: CCUCGGAGUAUUUGUCCAGU
For B1, which Kd ([1]; blunt) is on record?
Its Kd is 102 ± 8 nM.

Which Kd [2] does the source give for ACTGGACAAATACTCCGAGG (mixed, 3'-terminal A18 G19 G20 are ribonucleotides; positions 1-17 DNA) [ssDNA17+RNA3 (ss17D3R)] here?
Its Kd is ~39600 nM.

ACTGGACAAATACTCCGAGG (ssDNA) [ssDNA20] was tested. Which Kd ([1]; label: 5'-FAM, single strand) did it give?
The Kd was 77.7 ± 6 nM.

B2: dsDNA20 (dsDNA)
DNA 1: ACTGGACAAATACTCCGAGG
DNA 2: CCTCGGAGTATTTGTCCAGT
For B2, which Kd ([1]; label: 5'-FAM on strand 1, blunt) is on record?
The Kd was 139 ± 17.2 nM.

B3: dsDNA19+RNA1 (ss19D1R/ssDNA20) (mixed)
DNA 1: ACTGGACAAATACTCCGAGG
DNA 2: CCTCGGAGTATTTGTCCAGT
modifications: strand 1 3'-terminal G20 is a ribonucleotide; rest DNA
Does B3 bind [3]?
Result: binds

ACUGGACAAAUACUCCGAGG (ssRNA) [ssRNA20] was tested. Which Kd [4] did it give?
Its Kd is ~59000 nM.
